Here are results for two molecules from paper PMC9449809 (Frontiers in Immunology, 2022).

The target of the experiment is SARS-CoV-2 spike protein receptor-binding domain, Wuhan-Hu-1 sequence (SARS-CoV-2, UniProt P0DTC2). As to the kind of experiment: ELISA. Particulars: both partners purified.

B1: monoclonal antibody REGN10987 (imdevimab) (antibody, V domains shown)
VH: QVQLVESGGGVVQPGRSLRLSCAASGFTFSNYAMYWVRQAPGKGLEWVAVISYDGSNKYYADSVKGRFTISRDNSKNTLYLQMNSLRTEDTAVYYCASGSDYGDYLLVYWGQGTLVTVSS
VL: QSALTQPASVSGSPGQSITISCTGTSSDVGGYNYVSWYQQHPGKAPKLMIYDVSKRPSGVSNRFSGSKSGNTASLTISGLQSEDEADYYCNSLTSISTWVFGGGTKLTVL
Take B1: the binding result is recorded as “binds”.

B2: monoclonal antibody REGN10933 (casirivimab) (antibody, V domains shown)
VH: QVQLVESGGGLVKPGGSLRLSCAASGFTFSDYYMSWIRQAPGKGLEWVSYITYSGSTIYYADSVKGRFTISRDNAKSSLYLQMNSLRAEDTAVYYCARDRGTTMVPFDYWGQGTLVTVSS
VL: DIQMTQSPSSLSASVGDRVTITCQASQDITNYLNWYQQKPGKAPKLLIYAASNLETGVPSRFSGSGSGTDFTFTISGLQPEDIATYYCQQYDNLPLTFGGGTKVEIK
Turning to B2, the binding result is reported as “binds”.
